± gives the uncertainty stated by the source.

We go through 66 substances from the Human Domainome abundance scans (Beltran et al. 2025).

The nature of the data set: abundance fitness (aPCA) (normalised: wild type 0, dead -1); higher = more abundant; growth selection in yeast, the domain comes from the species named. To be noted: Homo sapiens.
Regarding “SAFB-like transcription modulator K35R, Q9NWH9”, the abundance fitness was -0.023 ± 0.041.
With “SAFB-like transcription modulator K35S, Q9NWH9”, the abundance fitness was -0.034 ± 0.07.
As for “SAFB-like transcription modulator K35T, Q9NWH9”, the figure is -0.474 ± 0.13.
Take “SAFB-like transcription modulator K35V, Q9NWH9”: the abundance fitness was -0.11 ± 0.042.
As for “SAFB-like transcription modulator K35W, Q9NWH9”, the figure is -0.163 ± 0.077.
As to “SAFB-like transcription modulator K35Y, Q9NWH9”, the abundance fitness was -0.086 ± 0.37.
As for “SAFB-like transcription modulator K45A, Q9NWH9”, the figure is -0.224 ± 0.068.
“SAFB-like transcription modulator K45C, Q9NWH9” returned an abundance fitness of -0.617 ± 0.052.
The value for “SAFB-like transcription modulator K45D, Q9NWH9” was -0.208 ± 0.037; that for “SAFB-like transcription modulator K45E, Q9NWH9” was -0.096 ± 0.038; that for “SAFB-like transcription modulator K45F, Q9NWH9” was -0.55 ± 0.037.
The value for “SAFB-like transcription modulator K45G, Q9NWH9” was -0.2 ± 0.066.
In turn, “SAFB-like transcription modulator K45H, Q9NWH9” came in with an abundance fitness of -0.372 ± 0.12.
As for “SAFB-like transcription modulator K45I, Q9NWH9”, the abundance fitness was -0.513 ± 0.079.
As for “SAFB-like transcription modulator K45L, Q9NWH9”, the abundance fitness is -0.731 ± 0.056.
The value for “SAFB-like transcription modulator K45M, Q9NWH9” was -0.325 ± 0.076.
As for “SAFB-like transcription modulator K45N, Q9NWH9”, the figure is -0.334 ± 0.086; as for “SAFB-like transcription modulator K45P, Q9NWH9”, -0.194 ± 0.077.
As for “SAFB-like transcription modulator K45Q, Q9NWH9”, the figure is -0.099 ± 0.084; as for “SAFB-like transcription modulator K45S, Q9NWH9”, -0.25 ± 0.055.
Regarding “SAFB-like transcription modulator K45T, Q9NWH9”, the abundance fitness is -0.095 ± 0.053.
The value for “SAFB-like transcription modulator K45V, Q9NWH9” was -0.399 ± 0.052; that for “SAFB-like transcription modulator K45W, Q9NWH9” was -0.293 ± 0.054.
The value for “SAFB-like transcription modulator K45Y, Q9NWH9” was -0.005 ± 0.085; that for “SAFB-like transcription modulator K53A, Q9NWH9” was 0.006 ± 0.071; that for “SAFB-like transcription modulator K53C, Q9NWH9” was -0.231 ± 0.052.
Turning to “SAFB-like transcription modulator K53D, Q9NWH9”, the abundance fitness was -0.931 ± 0.3.
As for “SAFB-like transcription modulator K53E, Q9NWH9”, the figure is -0.351 ± 0.099; as for “SAFB-like transcription modulator K53F, Q9NWH9”, -0.291 ± 0.06.
As for “SAFB-like transcription modulator K53G, Q9NWH9”, the figure is -0.35 ± 0.089.
The substance “SAFB-like transcription modulator K53H, Q9NWH9” gave an abundance fitness of -0.039 ± 0.14.
As for “SAFB-like transcription modulator K53I, Q9NWH9”, the figure is -0.369 ± 0.08.
The value for “SAFB-like transcription modulator K53M, Q9NWH9” was -0.407 ± 0.12; that for “SAFB-like transcription modulator K53N, Q9NWH9” was -0.295 ± 0.11.
With “SAFB-like transcription modulator K53P, Q9NWH9”, the abundance fitness was -0.778 ± 0.058.
As to “SAFB-like transcription modulator K53Q, Q9NWH9”, the abundance fitness was -0.159 ± 0.084.
The value for “SAFB-like transcription modulator K53R, Q9NWH9” was 0.05 ± 0.059.
As for “SAFB-like transcription modulator K53S, Q9NWH9”, the abundance fitness is -0.141 ± 0.043.
As for “SAFB-like transcription modulator K53T, Q9NWH9”, the figure is -0.03 ± 0.084; as for “SAFB-like transcription modulator K53V, Q9NWH9”, -0.184 ± 0.051.
The substance “SAFB-like transcription modulator K53Y, Q9NWH9” gave an abundance fitness of -0.517 ± 0.18.
As to “SAFB-like transcription modulator L25A, Q9NWH9”, the abundance fitness is -0.385 ± 0.032.
The value for “SAFB-like transcription modulator L25D, Q9NWH9” was -0.665 ± 0.054; that for “SAFB-like transcription modulator L25E, Q9NWH9” was -0.308 ± 0.1; that for “SAFB-like transcription modulator L25F, Q9NWH9” was -0.312 ± 0.061.
As for “SAFB-like transcription modulator L25G, Q9NWH9”, the figure is -0.715 ± 0.071.
The value for “SAFB-like transcription modulator L25H, Q9NWH9” was -0.732 ± 0.16; that for “SAFB-like transcription modulator L25I, Q9NWH9” was -0.467 ± 0.11.
Substance “SAFB-like transcription modulator L25K, Q9NWH9” yielded an abundance fitness of -0.407 ± 0.11.
Substance “SAFB-like transcription modulator L25M, Q9NWH9” registered an abundance fitness of -0.768 ± 0.045.
Turning to “SAFB-like transcription modulator L25N, Q9NWH9”, the abundance fitness was -0.172 ± 0.18.
The value for “SAFB-like transcription modulator L25P, Q9NWH9” was -0.718 ± 0.071; that for “SAFB-like transcription modulator L25Q, Q9NWH9” was -0.181 ± 0.31.
As for “SAFB-like transcription modulator L25R, Q9NWH9”, the figure is -0.663 ± 0.05; as for “SAFB-like transcription modulator L25S, Q9NWH9”, -0.745 ± 0.077.
For the substance “SAFB-like transcription modulator L25T, Q9NWH9”, the abundance fitness was -0.536 ± 0.063.
The substance “SAFB-like transcription modulator L25V, Q9NWH9” registered an abundance fitness of -0.748 ± 0.061.
The value for “SAFB-like transcription modulator L25W, Q9NWH9” was -0.219 ± 0.055; that for “SAFB-like transcription modulator L30A, Q9NWH9” was -0.581 ± 0.035.
As for “SAFB-like transcription modulator L30C, Q9NWH9”, the figure is -0.497 ± 0.083; as for “SAFB-like transcription modulator L30D, Q9NWH9”, -0.65 ± 0.083.
The substance “SAFB-like transcription modulator L30E, Q9NWH9” registered an abundance fitness of -0.6 ± 0.05.
The value for “SAFB-like transcription modulator L30F, Q9NWH9” was -0.706 ± 0.055; that for “SAFB-like transcription modulator L30H, Q9NWH9” was -0.902 ± 0.17; that for “SAFB-like transcription modulator L30I, Q9NWH9” was -0.129 ± 0.067.
Consider “SAFB-like transcription modulator L30K, Q9NWH9”, for which the abundance fitness is -1.33 ± 0.27.
